Measured values taken from the supplement of paper PMC10126150.
± gives the standard deviation of the averaged measurements.

System: ATP
Experiment: switch fluorescence ratio, 500 uM ATP over buffer (Cy3 cluster intensity, sum of 5 cycles each) (fold (ratio)); higher = stronger signal-on switching upon ATP binding; sequences stand for … in TCGTCGGCAGCGTCAGATGTGTATAAGAGACAGTTTTTTTTTTTTTTTTTTTTTTTTT…TC
Details: aptamer strand: ATP DNA aptamer (quencher-CACCTGGGGGAGTATTGCGGAGGAAGG + anchor), 100 nM annealed; ATP concentration: 500 uM
How it was run: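 Values give the fluorescence ratio for each switch-domain sequence, averaged from per-cluster ratios of summed target-cycle to summed buffer-cycle Cy3 intensity. The Cy3-labelled switching-strand clusters sat on a modified Illumina MiSeq flow-cell, were annealed to 100 nM quencher-labelled ATP aptamer, and were imaged in selection buffer, then after 15 min with 500 uM ATP at 22 °C. Five cycles ran with NaOH stripping and re-annealing between them, and clusters outside 100-1000 RFU were excluded.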
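Further: ATP exposure 15 min at 22 °C before imaging.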

GAATTTGTTG and TAGGAGGGGA are within error of each other in switch fluorescence ratio: 1.001 ± 0.0063 for the first, 1.01 ± 0.029 for the second.

Compared with ATTTTGCAAG, AGAGTTAGGT is higher in switch fluorescence ratio: 0.994 ± 0.018 for the first, 1.021 ± 0.0047 for the second.

CCGGGTGGGT and CGTTGCGGGA are within error of each other in switch fluorescence ratio: 1.11 ± 0.13 for the first, 1.01 ± 0.045 for the second.

TATCGTATTC and TTGTGGCCGG are within error of each other in switch fluorescence ratio: 0.97 ± 0.037 for the first, 0.978 ± 0.045 for the second.

TGGTTGCTGA and TTTTAAGACG are within error of each other in switch fluorescence ratio: 1 ± 0.033 for the first, 0.979 ± 0.069 for the second.

AGCACGGGGG and TTATTTTGGT are within error of each other in switch fluorescence ratio: 1.19 ± 0.28 for the first, 1.01 ± 0.035 for the second.

Going from CATTGGGGGA to TCTTTGGGGA, the switch fluorescence ratio rises from 0.983 ± 0.014 to 1.04 ± 0.04.

Going from ACATCCTACT to TTTTGTGGGA, the switch fluorescence ratio falls from 1.15 ± 0.041 to 1.01 ± 0.031.

First: GTTTCAGGGG
Second: ATTGAGGAAT
The switch fluorescence ratio of the first is higher: 1.09 ± 0.015 for the first, 0.965 ± 0.064 for the second.

First: TGGGAAAATG
Second: TTTAAAATTA
The switch fluorescence ratio of the first is higher: 1.018 ± 0.0069 for the first, 0.9978 ± 0.0042 for the second.

AGTAGTAGGA and ACAATCGGCG are within error of each other in switch fluorescence ratio: 1.01 ± 0.017 for the first, 1.02 ± 0.0072 for the second.

CTAGGTAGGG and GTTTGGACAG are within error of each other in switch fluorescence ratio: 0.997 ± 0.035 for the first, 1.007 ± 0.01 for the second.

GTGATGGGGT and TTGTTTTCCG are within error of each other in switch fluorescence ratio: 1.01 ± 0.038 for the first, 1.02 ± 0.014 for the second.

Compared with TTTAGGGATG, ACGTCAAGAG is higher in switch fluorescence ratio: 0.989 ± 0.0088 for the first, 1.45 ± 0.0026 for the second.

First: GGTATCAGGA
Second: ATACGGGGGT
The switch fluorescence ratio of the first is lower: 0.978 ± 0.013 for the first, 1.005 ± 0.0076 for the second.

TCCGATTTGT and TTTTTTGATT are within error of each other in switch fluorescence ratio: 1.02 ± 0.08 for the first, 1.01 ± 0.02 for the second.

TTCCCTTATG and GACTGGAGGA are within error of each other in switch fluorescence ratio: 0.976 ± 0.017 for the first, 0.9851 ± 0.008 for the second.

Going from GGGCAACGGG to CGGTATTATG, the switch fluorescence ratio falls from 1.2 ± 0.12 to 0.993 ± 0.022.

CAGCTAAATT and AGTTGTTGG are within error of each other in switch fluorescence ratio: 1.02 ± 0.047 for the first, 0.982 ± 0.011 for the second.

GGTTTATTTG and TAATTGTTAT are within error of each other in switch fluorescence ratio: 1.01 ± 0.016 for the first, 0.986 ± 0.024 for the second.

ATGTTGGGGG and GTAAAAGTTT are within error of each other in switch fluorescence ratio: 0.989 ± 0.018 for the first, 0.979 ± 0.01 for the second.

CCCATGATGG and ACCTAGGGAG are within error of each other in switch fluorescence ratio: 1.01 ± 0.046 for the first, 1.05 ± 0.02 for the second.

AGGTAGCATG and GTTTTTCGCC are within error of each other in switch fluorescence ratio: 1.01 ± 0.066 for the first, 1 ± 0.02 for the second.

GCGAGGTGCA and TTTGCTTTAA are within error of each other in switch fluorescence ratio: 1.03 ± 0.055 for the first, 1 ± 0.067 for the second.

ATCGTGAGGG and GGGGCAGGGG are within error of each other in switch fluorescence ratio: 1 ± 0.053 for the first, 1.05 ± 0.062 for the second.

TCGAAGGGT and GGGCTGAGGA are the same in switch fluorescence ratio: 1 ± 0.037 for the first, 1 ± 0.036 for the second.

TTTAAGTCGT and TCGTGTGGAG are within error of each other in switch fluorescence ratio: 0.974 ± 0.025 for the first, 1.01 ± 0.033 for the second.

TGAAGATATT and GAACTCTTGT are within error of each other in switch fluorescence ratio: 0.993 ± 0.023 for the first, 1.05 ± 0.096 for the second.

GTTGTACGGG and AGCTTGTTCG are within error of each other in switch fluorescence ratio: 1.02 ± 0.047 for the first, 0.987 ± 0.023 for the second.

First: TTGCGGGGTT
Second: CGCAGCCAGG
The switch fluorescence ratio of the first is lower: 1.14 ± 0.15 for the first, 3.33 ± 0.27 for the second.

CTGTCCTAAT and ACTGTTGTGT are within error of each other in switch fluorescence ratio: 1.009 ± 0.0049 for the first, 1.06 ± 0.1 for the second.

Compared with ATTTGTGTAC, CATGATGGAG is lower in switch fluorescence ratio: 1.047 ± 0.0071 for the first, 0.999 ± 0.032 for the second.

CAGAAAGGAC and TCTAGTTAAA are within error of each other in switch fluorescence ratio: 1.02 ± 0.031 for the first, 0.986 ± 0.0074 for the second.

GTTATAGCTT and CGTTCCGGGT are the same in switch fluorescence ratio: 1.018 ± 0.0029 for the first, 1.02 ± 0.036 for the second.

TTTCCGGGGG and ATGGCTGTGG are within error of each other in switch fluorescence ratio: 0.996 ± 0.022 for the first, 0.9852 ± 0.0085 for the second.

GTTAGGTACG and TATGGAGCGT are within error of each other in switch fluorescence ratio: 1 ± 0.07 for the first, 1.04 ± 0.018 for the second.

TTCGAATGTG and AATTTGTGCG are within error of each other in switch fluorescence ratio: 1.01 ± 0.028 for the first, 0.991 ± 0.012 for the second.

GCGGTTGGAA and GAGGCTATGG are within error of each other in switch fluorescence ratio: 0.9927 ± 0.0034 for the first, 1.01 ± 0.022 for the second.

TTCGGGTCCG and TCGAAGGTTT are within error of each other in switch fluorescence ratio: 0.988 ± 0.067 for the first, 1.01 ± 0.029 for the second.

Compared with CAGCCCGGTC, AGTCTTAAGG is lower in switch fluorescence ratio: 1.06 ± 0.048 for the first, 0.9459 ± 0.003 for the second.

CGGAGATGGC and GAATTGTATT are within error of each other in switch fluorescence ratio: 1.05 ± 0.038 for the first, 0.993 ± 0.06 for the second.

AGCACTGGGA and AGCGCCGAGT are within error of each other in switch fluorescence ratio: 1.04 ± 0.029 for the first, 0.973 ± 0.045 for the second.

First: GGTTTAAGGT
Second: GTTGTAGGTT
The switch fluorescence ratio of the first is higher: 1.01 ± 0.02 for the first, 0.966 ± 0.023 for the second.

GGGTAGTGAG and GAATATACCG are within error of each other in switch fluorescence ratio: 0.999 ± 0.02 for the first, 1.03 ± 0.042 for the second.

First: AGTTAGGGTA
Second: TTATGTTAAA
The switch fluorescence ratio of the first is lower: 0.9744 ± 0.0059 for the first, 1.01 ± 0.022 for the second.

CAGAGGTATG and GGGGGCAGCT are within error of each other in switch fluorescence ratio: 1.01 ± 0.028 for the first, 1 ± 0.027 for the second.

ATAGTTGGAT and ACAAGGAGGT are within error of each other in switch fluorescence ratio: 0.98 ± 0.011 for the first, 0.983 ± 0.005 for the second.

GAGTTTGTGT and AGGTTGTTAG are within error of each other in switch fluorescence ratio: 0.996 ± 0.011 for the first, 1.01 ± 0.019 for the second.

GGGGGCTTGT and TGGCGGTTTT are within error of each other in switch fluorescence ratio: 1 ± 0.019 for the first, 1.005 ± 0.0077 for the second.

Going from CGCTGGGGGC to AGGTTTGTTG, the switch fluorescence ratio falls from 1.03 ± 0.016 to 0.998 ± 0.016.
